Molecular target: the molecule itself
Assay: negative-stain electron microscopy; gel-filtration fractions of the low and the high MW peak stained and visualised by EM

B1: S. cerevisiae GINS complex (complex)
chain 1: MDINIDDILAELDKETTAVDSTKITQGSSSTTHRDANTIVGSSLDLNDKTQIYVSPQQDFSDLMKSWKNERCSPELLPYPHQLMKRLLNRISMQSQLIENISMGFLDMQNASNANPPMPNESKLPLLCMETELERLKFVIRSYIRCRLSKIDKFSLYLRQLNEDENSLISLTDLLSKDEIKYHDTHSLIWLKLVNDSILKYMPEELQAINDTEGSVNMIDEPDWNKFVFIHVNGPPDGKWNEDPLLQENEFGKPCYTVTIPDLKEEVELTIGSIYVMRYEVIRDLLRDDKVALI
chain 2: MYGDLGNKLVLEAKRTKQLYARSNQDVNLPMYHEDIIRNILKEVSNLRKNTEYLKEQQQLGMLDDKVAKCQYFVTLLCMERNKRCLLAYQRLRTDILDSMAWNNNGLDLMSSITFSQQDTNNLSHQEQEYLKEYCDLITDLKSGDLVDIDLSGSLVPPSDVFIDVRVLKDAGEIQTEYGVFNLIKDSQFFVRQSDVERLIQQGYLQKI
chain 3: MSLPAHLQQTFSPEEIQFIVENEPIKIFPRITTRQKIRGDDRGTGNHTRWQLITTDDKALNNMVAMRSTEVVLWIALLLKQQSKCSIVAPQWLTTKELDRKIQYEKTHPDRFSELPWNWLVLARILFNKAKDDFHDPIHELRGKIQDLREIRQIKVLKGLKYLNESHLQLDNLSLLEINELRPFITEIMDKLREIHTASLTAGTENDEEEFNI
chain 4: MGYYDIDDVLADGTEFPCKFQYDIPGLGYLENNPGRPITKNTKLSLPLWLARILAIVGGDEALVDEEPVPFVELLPPDMFSTKVMNAIKTDPVALDLHSINSHFFSLAIKWIMLFSEKELANVVSELLLQRAQELNHHASSLSIDLNADSTGKNSANTNIATSTFLLKLEEMEKEIYKKSHESYKDTKRWMFKK
notes: Sld5 subunit of the S. cerevisiae GINS complex; Psf1 subunit of the S. cerevisiae GINS complex; Psf2 subunit of the S. cerevisiae GINS complex; Psf3 subunit of the S. cerevisiae GINS complex; details may be in the Supplementary Information; also called yeast GINS complex; copies: + + +
binding result: binds

— PMC5223209, “New insights into the GINS complex explain the controversy between existing structural models” (Scientific Reports, 2017)
